Measured values published in FireProtDB (doi:10.1016/s0301-4622(00)00161-7).
“And” between values parts separate entries of the source, which are not always exact repeats. Equal entries are not always repeated.

Settings: pH 7, Sodium phosphate 10 mM, whole UniProt chain shown
[1] = Homo sapiens, 20 °C, Thermal, DSC

| Protein | denaturant midpoint (higher = more stable) (Bos taurus, 20 °C, GdnHCl, Fluorescence) | denaturant midpoint (higher = more stable) (Bos taurus, 20 °C, Urea, Fluorescence) | denaturant midpoint (higher = more stable) (Homo sapiens, 20 °C, GdnHCl, CD) [M] | denaturant midpoint (higher = more stable) (Homo sapiens, 20 °C, GdnHCl, Fluorescence) | heat capacity change of unfolding [1] | unfolding free energy [1] | denaturant midpoint (higher = more stable) (Homo sapiens, 20 °C, Urea, CD) [M] | denaturant midpoint (higher = more stable) (Homo sapiens, 20 °C, Urea, Fluorescence) | heat capacity change of unfolding (Homo sapiens, Thermal, DSC) | unfolding enthalpy (calorimetric) (Homo sapiens, Thermal, DSC) |
| --- | --- | --- | --- | --- | --- | --- | --- | --- | --- | --- |
| Gamma-crystallin S wild type, P06504 (protein) MSKAGTKITFFEDKNFQGRHYDSDCDCADFHMYLSRCNSIRVEGGTWAVYERPNFAGYMYILPRGEYPEYQHWMGLNDRLSSCRAVHLSSGGQYKLQIFEKGDFNGQMHETTEDCPSIMEQFHMREVHSCKVLEGAWIFYELPNYRGRQYLLDKKEYRKPVDWGAASPAVQSFRRIVE | 2.1 M and 1.8 M | 7 M and 6.6 M |  |  |  |  |  |  |  |  |
| Gamma-crystallin S wild type, P22914 (protein) MSKTGTKITFYEDKNFQGRRYDCDCDCADFHTYLSRCNSIKVEGGTWAVYERPNFAGYMYILPQGEYPEYQRWMGLNDRLSSCRAVHLPSGGQYKIQIFEKGDFSGQMYETTEDCPSIMEQFHMREIHSCKVLEGVWIFYELPNYRGRQYLLDKKEYRKPIDWGAASPAVQSFRRIVE |  |  | 1.9 | 2.6 M and 2.5 M | 1.79 kcal/mol/K and 0.84 kcal/mol/K and 1.08 kcal/mol/K | 20.1 kcal/mol and 10 kcal/mol and 11.5 kcal/mol | 7 | 8 M and 7.6 M | 1.79 kcal/mol/K and 0.84 kcal/mol/K and 1.08 kcal/mol/K | 179 kcal/mol and 90.8 kcal/mol and 103 kcal/mol |
